Results: PMC8842248 (2022)
*: point of attachment. Farnesyl = CC(C)=CCC/C(C)=C/CC/C(C)=C/C*

Experiments:
[1] = molecular target: T1, PDE6D (phosphodiesterase 6 delta), wild type, polyhistidine tag removed (UniProt O43924 1-150); test: FP; in the presence of 500 uM Compound-2
[2] = molecular target: T1, PDE6D (phosphodiesterase 6 delta), wild …; test: FP; + compound-1, average of 3 replicates
[3] = molecular target: T1, PDE6D (phosphodiesterase 6 delta), wild …; test: FP; + compound-1, replicate 2
[4] = molecular target: T1, PDE6D (phosphodiesterase 6 delta), wild …; test: FP; + compound-1, replicate 3
[5] = molecular target: T1, PDE6D (phosphodiesterase 6 delta), wild …; test: FP; + compound-1, replicate 1
[6] = molecular target: T1, PDE6D (phosphodiesterase 6 delta), wild …; test: FP; average of 3 replicates
[7] = molecular target: T1, PDE6D (phosphodiesterase 6 delta), wild …; test: FP; replicate 3

B1: fluorescein-labeled KRAS HVR peptide, FAM-KKKKKKSKTKC(OMe)-Far (peptide)
peptide: {FAM}-KKKKKKSKTKC(Farnesyl)-OMe
- Kd [1]: 55200 nM
- Kd [2]: 1300 nM
- Kd [3]: 1700 nM
- Kd [4]: 1200 nM
- Kd [5]: 1000 nM
- Kd [6]: 1400 nM
- Kd [7]: 1100 nM
